Data as given in patent US11278600B2, “Human alpha-galactosidase variants” (Codexis, Inc., priority 2014, dated 2022).

B1: 539 (protein)
chain: LDNGLARTPTMGWLHWERFMCNLDCQEEPDSCISEKLFMEMAERMVSEGWKDAGYEYLCIDDCWMAPQRDSEGRLQADPQRFPHGIRQLANHVHSKGLKLGIYADVGNKTCAGFPGSFGYYDIDAQTFADWGVDLLKFDGCYCDSLENLADGYKHMSLALNRTGRSIVYSCEWPLYMWPFQKPNYTEIRQYCNHWRNFADIDDSWASIKSILDWTSRNQERIVDVAGPGGWNDPDMLVIGNFGLSWDQQVTQMALWAIMAAPLFMSNDLRHISPQAKALLQDKDVIHINQDPLGKQGYQLRKGDNFEVWERPLSGDAWAVAIINRQEIGGPRSYTIPVASLGKGVACNPACFITQLLPVKRQLGFYNWTSRLKSHINPTGTVLLQLENTMQMSLKDLL
modifications: Synthetic Polypeptide sequence of Variant No. 539 of mature Human GLA
B2: 516 (protein)
chain: LENGLARTPTMGWLHWERFMCNLDCQEEPDSCISEKLFMEMAERMVSEGWKDAGYEYLCIDDCWMAPQRDSEGRLQADPQRFPHGIRQLANHVHSKGLKLGIYADVGNKTCAGFPGSFGYYDIDAQTFADWGVDLLKFDGCYCDSLENLADGYKHMSLALNRTGRSIVYSCEWPLYMWPFQKPNYTEIRQYCNHWRNFADIDDSWASIKSILDWTSRNQERIVDVAGPGGWNDPDMLVIGNFGLSWDQQVTQMALWAIMAAPLFMSNDLRHISPQAKALLQDKDVIAINQDPLGKQGYQLRKGDNFEVWERPLSGDAWAVAIINRGEIGGPRSYTIPVASLGKGVACNPACFITQLLPVKRQLGFYNWTSRLKSHINPTGTVLLQLENTMQMSLKDLL
modifications: Synthetic Polypeptide sequence of Variant No. 516 of mature Human GLA
B3: 541 (protein)
chain: LDNGLARTPTMGWLHWERFMCNLDCQEEPDSCISEKLFMEMAERMVSEGWKDAGYEYLCIDDCWMAPQRDSEGRLQADPQRFPHGIRQLANHVHSKGLKLGIYADVGNKTCAGFPGSFGYYDIDAQTFADWGVDLLKFDGCYCDSLENLADGYKHMSLALNRTGRSIVYSCEWPLYMWPFQKPNYTEIRQYCNHWRNFADIDDSWASIKSILDWTSRNQERIVDVAGPGGWNDPDMLVIGNFGLSWDQQVTQMALWAIMAAPLFMSNDLRHISPQAKALLQAKDVIAINQDPLGKQGYQLRKGDNFEVWERPLSGDAWAVAIINRQEIGGPRSYTIPVASLGKGVACNPACFITQLLPVKRQLGFYNWTSRLKSHINPTGTVLLQLENTMQMSLKDLL
modifications: Synthetic Polypeptide sequence of Variant No. 541 of mature Human GLA
B4: 542 (protein)
chain: LDNGLARTPTMGWLHWERFMCNLDCQEEPDSCISEKLFMEMAERMVSEGWKDAGYEYLCIDDCWMAPQRDSEGRLQADPQRFPHGIRQLANHVHSKGLKLGIYADVGNKTCAGFPGSFGYYDIDAQTFADWGVDLLKFDGCYCDSLENLADGYKHMSLALNRTGRSIVYSCEWPLYMWPFQKPNYTEIRQYCNHWRNFADIDDSWASIKSILDWTSRNQERIVDVAGPGGWNDPDMLVIGNFGLSWDQQVTQMALWAIMAAPLFMSNDLRHISPQAKALLQGKDVIAINQDPLGKQGYQLRKGDNFEVWERPLSGDAWAVAIINRQEIGGPRSYTIPVASLGKGVACNPACFITQLLPVKRQLGFYNWTSRLKSHINPTGTVLLQLENTMQMSLKDLL
modifications: Synthetic Polypeptide sequence of Variant No. 542 of mature Human GLA
B5: 540 (protein)
chain: LDNGLARTPTMGWLHWERFMCNLDCQEEPDSCISEKLFMEMAERMVSEGWKDAGYEYLCIDDCWMAPQRDSEGRLQADPQRFPHGIRQLANHVHSKGLKLGIYADVGNKTCAGFPGSFGYYDIDAQTFADWGVDLLKFDGCYCDSLENLADGYKHMSLALNRTGRSIVYSCEWPLYMWPFQKPNYTEIRQYCNHWRNFADIDDSWASIKSILDWTSRNQERIVDVAGPGGWNDPDMLVIGNFGLSWDQQVTQMALWAIMAAPLFMSNDLRHISPQAKALLQDKDVIMINQDPLGKQGYQLRKGDNFEVWERPLSGDAWAVAIINRQEIGGPRSYTIPVASLGKGVACNPACFITQLLPVKRQLGFYNWTSRLKSHINPTGTVLLQLENTMQMSLKDLL
modifications: Synthetic Polypeptide sequence of Variant No. 540 of mature Human GLA
B6: 543 (protein)
chain: LDNGLARTPTMGWLHWERFMCNLDCQEEPDSCISEKLFMEMAERMVSEGWKDAGYEYLCIDDCWMAPQRDSEGRLQADPQRFPHGIRQLANHVHSKGLKLGIYADVGNKTCAGFPGSFGYYDIDAQTFADWGVDLLKFDGCYCDSLENLADGYKHMSLALNRTGRSIVYSCEWPLYMWPFQKPNYTEIRQYCNHWRNFADIDDSWASIKSILDWTSRNQERIVDVAGPGGWNDPDMLVIGNFGLSWDQQVTQMALWAIMAAPLFMSNDLRHISPQAKALLQMKDVIAINQDPLGKQGYQLRKGDNFEVWERPLSGDAWAVAIINRQEIGGPRSYTIPVASLGKGVACNPACFITQLLPVKRQLGFYNWTSRLKSHINPTGTVLLQLENTMQMSLKDLL
modifications: Synthetic Polypeptide sequence of Variant No. 543 of mature Human GLA
B7: 544 (protein)
chain: LDNGLARTPTMGWLHWERFMCNLDCQEEPDSCISEKLFMEMAERMVSEGWKDAGYEYLCIDDCWMAPQRDSEGRLQADPQRFPHGIRQLANHVHSKGLKLGIYADVGNKTCAGFPGSFGYYDIDAQTFADWGVDLLKFDGCYCDSLENLADGYKHMSLALNRTGRSIVYSCEWPLYMWPFQKPNYTEIRQYCNHWRNFADIDDSWASIKSILDWTSRNQERIVDVAGPGGWNDPDMLVIGNFGLSWDQQVTQMALWAIMAAPLFMSNDLRHISPQAKALLQVKDVIAINQDPLGKQGYQLRKGDNFEVWERPLSGDAWAVAIINRQEIGGPRSYTIPVASLGKGVACNPACFITQLLPVKRQLGFYNWTSRLKSHINPTGTVLLQLENTMQMSLKDLL
modifications: Synthetic Polypeptide sequence of Variant No. 544 of mature Human GLA
B8: 545 (protein)
chain: LDNGLARTPTMGWLHWERFMCNLDCQEEPDSCISEKLFMEMAERMVSEGWKDAGYEYLCIDDCWMAPQRDSEGRLQADPQRFPHGIRQLANHVHSKGLKLGIYADVGNKTCAGFPGSFGYYDIDAQTFADWGVDLLKFDGCYCDSLENLADGYKHMSLALNRTGRSIVYSCEWPLYMWPFQKPNYTEIRQYCNHWRNFADIDDSWASIKSILDWTSRNQERIVDVAGPGGWNDPDMLVIGNFGLSWDQQVTQMALWAIMAAPLFMSNDLRHISPQAKALLQDKDVIAINQDPLGAQGYQLRKGDNFEVWERPLSGDAWAVAIINRQEIGGPRSYTIPVASLGKGVACNPACFITQLLPVKRQLGFYNWTSRLKSHINPTGTVLLQLENTMQMSLKDLL
modifications: Synthetic Polypeptide sequence of Variant No. 545 of mature Human GLA

How the values were obtained:
Format in all cases: biochemical
[1] = HTP-analysis of supernatants pretreated with acid (MUGal hydrolysis); details: activity of the variant/activity of Rd3BB (SEQ ID NO: 13); challenge at pH 3.7
In short: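 Fluorescence of MUGal hydrolysis (Ex. 355 nm, Em. 448 nm) is read after sodium carbonate quench. The enzyme source is INVSc1 yeast culture supernatant, first exposed to pH 3.3-4.3 McIlvaine buffer at 37° C. for 1-3 h, then reacted at pH 4.8 for 30-180 minutes.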

[2] = HTP-analysis of supernatants pretreated with base (MUGal hydrolysis); details: activity of the variant/activity of Rd3BB (SEQ ID NO: 13); challenge at pH 9.7
In short: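 Fluorescence of released 4-MU (Ex 355 nm, Em 448 nm) after carbonate quench reports MUGal hydrolysis by GLA variants secreted from INVSc1 yeast. Before the acidic (pH 4.3-4.8) 30-180 min reaction at 37° C, supernatants had been pre-incubated at pH 7.0-9.7 for 1-18 h at 37° C.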

[3] = HTP-analysis of yeast culture supernatants, no challenge (MUGal hydrolysis); details: activity of the variant/activity of Rd3BB (SEQ ID NO: 13)
In short: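 GLA variants expressed in yeast INVSc1, secreted into SD-Ura broth over 66-84 h at 30° C; clarified supernatants tested without challenge. Supernatant mixed with McIlvaine buffer pH 4.8 and 2 mM MUGal (citrate/KCl, pH 4.6), 37° C for 30-180 min, carbonate-quenched, fluorescence Ex 355/Em 448 nm.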

Molecule | Relative Activity of GLA Variants After Challenge at pH 3.7 [1] | Relative Activity of GLA Variants After Challenge at pH 9.7 [2] | Relative Activity of GLA Variants After No Challenge (NC) [3]
B1 | + (+ = 1.5 to 5 relative activity over Rd3BB (SEQ ID NO: 13)) | ++ (++ = >5 to 10 relative activity over Rd3BB (SEQ ID NO: 13)) | + (+ = 1.5 to 5 relative activity over Rd3BB (SEQ ID NO: 13))
B2 | +++ (+++ = >10 relative activity over Rd3BB (SEQ ID NO: 13)) | + (+ = 1.5 to 5 relative activity over Rd3BB (SEQ ID NO: 13)) | + (+ = 1.5 to 5 relative activity over Rd3BB (SEQ ID NO: 13))
B3 | + (+ = 1.5 to 5 relative activity over Rd3BB (SEQ ID NO: 13)) | ++ (++ = >5 to 10 relative activity over Rd3BB (SEQ ID NO: 13)) | + (+ = 1.5 to 5 relative activity over Rd3BB (SEQ ID NO: 13))
B4 | + (+ = 1.5 to 5 relative activity over Rd3BB (SEQ ID NO: 13)) | ++ (++ = >5 to 10 relative activity over Rd3BB (SEQ ID NO: 13)) | + (+ = 1.5 to 5 relative activity over Rd3BB (SEQ ID NO: 13))
B5 | + (+ = 1.5 to 5 relative activity over Rd3BB (SEQ ID NO: 13)) | ++ (++ = >5 to 10 relative activity over Rd3BB (SEQ ID NO: 13)) | + (+ = 1.5 to 5 relative activity over Rd3BB (SEQ ID NO: 13))
B6 | + (+ = 1.5 to 5 relative activity over Rd3BB (SEQ ID NO: 13)) | + (+ = 1.5 to 5 relative activity over Rd3BB (SEQ ID NO: 13)) | + (+ = 1.5 to 5 relative activity over Rd3BB (SEQ ID NO: 13))
B7 | + (+ = 1.5 to 5 relative activity over Rd3BB (SEQ ID NO: 13)) | + (+ = 1.5 to 5 relative activity over Rd3BB (SEQ ID NO: 13)) | + (+ = 1.5 to 5 relative activity over Rd3BB (SEQ ID NO: 13))
B8 | + (+ = 1.5 to 5 relative activity over Rd3BB (SEQ ID NO: 13)) | ++ (++ = >5 to 10 relative activity over Rd3BB (SEQ ID NO: 13)) | + (+ = 1.5 to 5 relative activity over Rd3BB (SEQ ID NO: 13))
